Target: recombinant human IL-1β (human) (UniProt P01584)
Experiment: cell-based or functional assay

Chain of UniProt P01584 (P01584 117-269 limits assumed): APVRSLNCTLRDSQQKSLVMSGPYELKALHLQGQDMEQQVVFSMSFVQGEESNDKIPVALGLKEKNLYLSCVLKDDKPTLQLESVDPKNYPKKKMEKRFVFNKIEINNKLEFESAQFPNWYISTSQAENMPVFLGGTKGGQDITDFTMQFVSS

IL-1β induced PGE2 production in human fibroblasts (CCD 1098), PGE2 ELISA; IL-1 Hy2 at 1000 fold excess: 40 to 60 % inhibition
Substance: IL-1 Hy2 (from UniProt Q8WWZ1 1-152) (ligand)

Reference: patent US6372892
